One substance from patent US20170233449A1 can be followed below.

The assay concerns the target type I interferon receptor (IFNAR1 and IFNAR2) on cells (human) (UniProt P17181). In words: cell-based or functional assay.

Chain of type I interferon receptor (IFNAR1 and IFNAR2) on cells (human) (P17181 28-557, chain 1 of 2): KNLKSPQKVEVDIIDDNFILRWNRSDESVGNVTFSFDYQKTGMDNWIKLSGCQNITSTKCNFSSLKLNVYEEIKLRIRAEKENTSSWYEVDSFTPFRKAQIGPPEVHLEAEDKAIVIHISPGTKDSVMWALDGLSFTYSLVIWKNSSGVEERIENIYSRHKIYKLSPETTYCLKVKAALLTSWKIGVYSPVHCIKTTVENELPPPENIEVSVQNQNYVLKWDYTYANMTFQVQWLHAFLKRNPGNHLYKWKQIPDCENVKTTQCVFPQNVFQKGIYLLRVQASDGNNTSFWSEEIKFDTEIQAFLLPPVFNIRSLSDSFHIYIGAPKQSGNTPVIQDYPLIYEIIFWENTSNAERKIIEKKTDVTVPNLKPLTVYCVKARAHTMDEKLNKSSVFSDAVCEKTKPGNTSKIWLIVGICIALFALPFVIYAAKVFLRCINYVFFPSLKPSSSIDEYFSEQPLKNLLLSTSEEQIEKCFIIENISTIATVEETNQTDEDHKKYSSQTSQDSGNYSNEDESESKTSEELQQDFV
Chain of type I interferon receptor (IFNAR1 and IFNAR2) on cells (human) (P48551 27-515, chain 2 of 2, further chain): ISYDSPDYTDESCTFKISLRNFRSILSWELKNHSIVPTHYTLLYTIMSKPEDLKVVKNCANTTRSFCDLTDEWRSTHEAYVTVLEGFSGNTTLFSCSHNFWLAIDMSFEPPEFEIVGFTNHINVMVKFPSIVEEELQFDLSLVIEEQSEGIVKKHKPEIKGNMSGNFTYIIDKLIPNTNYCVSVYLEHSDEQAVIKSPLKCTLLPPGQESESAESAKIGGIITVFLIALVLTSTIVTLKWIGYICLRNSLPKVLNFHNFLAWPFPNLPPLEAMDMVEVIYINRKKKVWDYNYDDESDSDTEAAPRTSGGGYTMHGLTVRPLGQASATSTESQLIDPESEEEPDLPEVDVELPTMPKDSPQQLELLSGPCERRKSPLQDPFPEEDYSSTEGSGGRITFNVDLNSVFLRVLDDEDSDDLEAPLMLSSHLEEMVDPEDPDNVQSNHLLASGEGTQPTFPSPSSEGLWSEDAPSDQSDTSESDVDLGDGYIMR

In the case of “human interferon-β1 (IFNβ), free wild type (from UniProt P01574 22-187) (ligand)”, the EC50 Off Target (pM) iLite is 0.799 pM and the EC50 On Target (PM) ARP-1 was 0.0105 nM.
